# B1: PGT-126 (antibody, V domains shown)
# VH: QPQLQESGPGLVEASETLSLTCTVSGDSTAACDYFWGWVRQPPGKGLEWIGGLSHCAGYYNTGWTYHNPSLKSRLTISLDTPKNQVFLKLNSVTAADTAIYYCARFDGEVLVYHDWPKPAWVDLWGRGTLVTVSS
# VL: QSALTQPPSASGSPGQSISISCTGTSNRFVSWYQQHPGKAPKLVIYGVNKRPSGVPDRFSGSKSGNTASLTVSGLQTDDEAVYYCSSLVGNWDVIFGGGTKLTVL
# Columns and labels:
# Experiment in all cases: cell-based or functional assay
# [1] = molecular target: HIV-1 Env of isolate 92UG001 (subtype D) (HIV-1)
# [2] = molecular target: HIV-1 Env of isolate 92UG005 (subtype D) (HIV-1)
# [3] = molecular target: HIV-1 Env of isolate 92UG024 (subtype D) (HIV-1)
# [4] = molecular target: HIV-1 Env of isolate 92UG046 (subtype D) (HIV-1)
# [5] = molecular target: HIV-1 Env of isolate 92UG114 (subtype D) (HIV-1)
# [6] = molecular target: HIV-1 Env of isolate 98CN006 (subtype CRF08_BC) (HIV-1)
# [7] = molecular target: HIV-1 Env of isolate 98CN009 (subtype CRF07_BC) (HIV-1)
# [8] = molecular target: HIV-1 Env of isolate MGRM-D-001 (subtype D) (HIV-1)
# [9] = molecular target: HIV-1 Env of isolate MGRM-D-002 (subtype D) (HIV-1)
# [10] = molecular target: HIV-1 Env of isolate MGRM-D-003 (subtype D) (HIV-1)
# [11] = molecular target: HIV-1 Env of isolate MGRM-D-004 (subtype D) (HIV-1)
# [12] = molecular target: HIV-1 Env of isolate MGRM-D-005 (subtype D) (HIV-1)
# [13] = molecular target: HIV-1 Env of isolate MGRM-D-008 (subtype D) (HIV-1)
# [14] = molecular target: HIV-1 Env of isolate MGRM-D-011 (subtype D) (HIV-1)
# [15] = molecular target: HIV-1 Env of isolate MGRM-D-012 (subtype D) (HIV-1)
# [16] = molecular target: HIV-1 Env of isolate MGRM-D-013 (subtype D) (HIV-1)
# [17] = molecular target: HIV-1 Env of isolate MGRM-D-014 (subtype D) (HIV-1)
# [18] = molecular target: HIV-1 Env of isolate MGRM-D-016 (subtype D) (HIV-1)
# [19] = molecular target: HIV-1 Env of isolate MGRM-D-018 (subtype D) (HIV-1)
# [20] = molecular target: HIV-1 Env of isolate MGRM-D-019 (subtype D) (HIV-1)
# [21] = molecular target: HIV-1 Env of isolate MGRM-D-020 (subtype D) (HIV-1)
# [22] = molecular target: HIV-1 Env of isolate MGRM-D-021 (subtype D) (HIV-1)
# [23] = molecular target: HIV-1 Env of isolate MGRM-D-022 (subtype D) (HIV-1)
# [24] = molecular target: HIV-1 Env of isolate MGRM-D-024 (subtype D) (HIV-1)
# [25] = molecular target: HIV-1 Env of isolate MGRM-D-026 (subtype D) (HIV-1)
# [26] = molecular target: HIV-1 Env of isolate MGRM-D-028 (subtype D) (HIV-1)
# [27] = molecular target: HIV-1 Env of isolate MGRM-D-029 (subtype D) (HIV-1)
# [28] = molecular target: HIV-1 Env of isolate MGRM-F1-004 (subtype F) (HIV-1)
# [29] = molecular target: HIV-1 Env of isolate MGRM-F1-006 (subtype F) (HIV-1)
# [30] = molecular target: HIV-1 Env of isolate MGRM-F1-008 (subtype F) (HIV-1)
# [31] = molecular target: HIV-1 Env of isolate MGRM-F1-010 (subtype F) (HIV-1)
# [32] = molecular target: HIV-1 Env of isolate MGRM-F1-012 (subtype F) (HIV-1)
# [33] = molecular target: HIV-1 Env of isolate MGRM-F1-013 (subtype F) (HIV-1)
# [34] = molecular target: HIV-1 Env of isolate MGRM-F1-014 (subtype F) (HIV-1)
# [35] = molecular target: HIV-1 Env of isolate MGRM-F1-015 (subtype F) (HIV-1)
# [36] = molecular target: HIV-1 Env of isolate MGRM-F1-016 (subtype F) (HIV-1)
# [37] = molecular target: HIV-1 Env of isolate MGRM-F1-017 (subtype F) (HIV-1)
# [38] = molecular target: HIV-1 Env of isolate MGRM-F1-018 (subtype F) (HIV-1)
# [39] = molecular target: HIV-1 Env of isolate MGRM-F1-020 (subtype F) (HIV-1)
# [40] = molecular target: HIV-1 Env of isolate MGRM-F1-021 (subtype F) (HIV-1)
# [41] = molecular target: HIV-1 Env of isolate MGRM-F1-022 (subtype F) (HIV-1)
# [42] = molecular target: HIV-1 Env of isolate MGRM-F1-023 (subtype F) (HIV-1)
# [43] = molecular target: HIV-1 Env of pseudovirus isolate MGRM-G-001 (subtype G) (HIV-1)
# [44] = molecular target: HIV-1 Env of pseudovirus isolate MGRM-G-004 (subtype G) (HIV-1)
# [45] = molecular target: HIV-1 Env of pseudovirus isolate MGRM-G-006 (subtype G) (HIV-1)
# [46] = molecular target: HIV-1 Env of pseudovirus isolate MGRM-G-009 (subtype G) (HIV-1)
# [47] = molecular target: HIV-1 Env of pseudovirus isolate MGRM-G-011 (subtype G) (HIV-1)
# [48] = molecular target: HIV-1 Env of pseudovirus isolate MGRM-G-013 (subtype G) (HIV-1)
# [49] = molecular target: HIV-1 Env of pseudovirus isolate MGRM-G-014 (subtype G) (HIV-1)
# [50] = molecular target: HIV-1 Env of pseudovirus isolate MGRM-G-015 (subtype G) (HIV-1)
# [51] = molecular target: HIV-1 Env of pseudovirus isolate MGRM-G-016 (subtype G) (HIV-1)
# [52] = molecular target: HIV-1 Env of pseudovirus isolate MGRM-G-017 (subtype G) (HIV-1)
# [53] = molecular target: HIV-1 Env of pseudovirus isolate MGRM-G-019 (subtype G) (HIV-1)
# [54] = molecular target: HIV-1 Env of pseudovirus isolate MGRM-G-024 (subtype G) (HIV-1)
# [55] = molecular target: HIV-1 Env of pseudovirus isolate MGRM-G-025 (subtype G) (HIV-1)
# [56] = molecular target: HIV-1 Env of pseudovirus isolate MGRM-G-027 (subtype G) (HIV-1)
# [57] = molecular target: HIV-1 Env of pseudovirus isolate MGRM-G-028 (subtype G) (HIV-1)
# [58] = molecular target: envelope of aMLV pseudovirus (negative control)
binder,measurement,setting,value
B1,IC50 (neutralization),[1],> 50 mg/L
same,IC50 (neutralization),[2],0.037 mg/L
same,IC50 (neutralization),[3],> 50 mg/L
same,IC50 (neutralization),[4],> 50 mg/L
same,IC50 (neutralization),[5],0.038 mg/L
same,IC50 (neutralization),[6],0.046 mg/L
same,IC50 (neutralization),[7],0.019 mg/L
same,IC50 (neutralization),[8],0.084 mg/L
same,IC50 (neutralization),[9],0.039 mg/L
same,IC50 (neutralization),[10],0.021 mg/L
same,IC50 (neutralization),[11],> 50 mg/L
same,IC50 (neutralization),[12],0.792 mg/L
same,IC50 (neutralization),[13],43.1 mg/L
same,IC50 (neutralization),[14],0.009 mg/L
same,IC50 (neutralization),[15],> 50 mg/L
same,IC50 (neutralization),[16],> 50 mg/L
same,IC50 (neutralization),[17],0.03 mg/L
same,IC50 (neutralization),[18],> 50 mg/L
same,IC50 (neutralization),[19],0.009 mg/L
same,IC50 (neutralization),[20],> 50 mg/L
same,IC50 (neutralization),[21],0.023 mg/L
same,IC50 (neutralization),[22],0.047 mg/L
same,IC50 (neutralization),[23],> 50 mg/L
same,IC50 (neutralization),[24],0.376 mg/L
same,IC50 (neutralization),[25],> 50 mg/L
same,IC50 (neutralization),[26],> 50 mg/L
same,IC50 (neutralization),[27],> 50 mg/L
same,IC50 (neutralization),[28],0.063 mg/L
same,IC50 (neutralization),[29],0.078 mg/L
same,IC50 (neutralization),[30],> 50 mg/L
same,IC50 (neutralization),[31],> 50 mg/L
same,IC50 (neutralization),[32],0.3 mg/L
same,IC50 (neutralization),[33],> 50 mg/L
same,IC50 (neutralization),[34],> 50 mg/L
same,IC50 (neutralization),[35],> 50 mg/L
same,IC50 (neutralization),[36],> 50 mg/L
same,IC50 (neutralization),[37],> 50 mg/L
same,IC50 (neutralization),[38],14.9 mg/L
same,IC50 (neutralization),[39],> 50 mg/L
same,IC50 (neutralization),[40],> 50 mg/L
same,IC50 (neutralization),[41],> 50 mg/L
same,IC50 (neutralization),[42],0.009 mg/L
same,IC50,[43],0.038 mg/L
same,IC50,[44],> 50 mg/L
same,IC50,[45],> 50 mg/L
same,IC50,[46],> 50 mg/L
same,IC50,[47],7.32 mg/L
same,IC50,[48],48.8 mg/L
same,IC50,[49],0.009 mg/L
same,IC50,[50],> 50 mg/L
same,IC50,[51],> 50 mg/L
same,IC50,[52],> 50 mg/L
same,IC50,[53],0.018 mg/L
same,IC50,[54],> 50 mg/L
same,IC50,[55],17.1 mg/L
same,IC50,[56],0.875 mg/L
same,IC50,[57],0.012 mg/L
same,IC50,[58],> 50 mg/L

# Source: patent US20160264649A1
